Experimental data: the supplement of paper PMC10567573

B1: TOR1AIP2 (parent)
chain: SPGHSSAGQEGEDTLRRRLLAPEA
B2: FBXO33 (parent)
chain: RLRGLLRVLRGRPGAGSRRRGRMA

Variants of: B1
Experiment: protein stability index of a GFP-peptide fusion (GPS, HEK-293T) (PSI 1-6); higher = more stable
Settings: c terminus: a fixed tail appended
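Note: lentivirally expressed fusions sorted by FACS into six bins by GFP to DsRed ratio, PSI derived from sequencing read proportions per bin multiplied by bin number.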

Going from SPGHSSAGQEGEDTLRRRLLACEA [P22C] to SPGHSSAGQEGEDTLRRRLLADEA [P22D], the protein stability index rises from 4.41 to 5.34.

Going from SPGHSSAGQEGEDTLRRRLLAEEA [P22E] to SPGHSSAGQEGEDTLRRRLLAFEA [P22F], the protein stability index falls from 4.95 to 4.92.

First: SPGHSSAGQEGEDTLRRRLLAGEA [P22G]
Second: SPGHSSAGQEGEDTLRRRLLAHEA [P22H]
The protein stability index of the first is lower: 5.11 for the first, 5.27 for the second.

First: SPGHSSAGQEGEDTLRRRLLAIEA [P22I]
Second: SPGHSSAGQEGEDTLRRRLLAKEA [P22K]
The protein stability index of the first is lower: 5.16 for the first, 5.46 for the second.

Compared with SPGHSSAGQEGEDTLRRRLLALEA [P22L], SPGHSSAGQEGEDTLRRRLLAMEA [P22M] is higher in protein stability index: 4.59 for the first, 4.93 for the second.

First: SPGHSSAGQEGEDTLRRRLLANEA [P22N]
Second: SPGHSSAGQEGEDTLRRRLLAQEA [P22Q]
The protein stability index of the first is higher: 5.76 for the first, 5.42 for the second.

Going from SPGHSSAGQEGEDTLRRRLLAREA [P22R] to SPGHSSAGQEGEDTLRRRLLASEA [P22S], the protein stability index falls from 4.99 to 4.92.

Compared with SPGHSSAGQEGEDTLRRRLLATEA [P22T], SPGHSSAGQEGEDTLRRRLLAVEA [P22V] is higher in protein stability index: 4.47 for the first, 4.8 for the second.

Going from SPGHSSAGQEGEDTLRRRLLAWEA [P22W] to SPGHSSAGQEGEDTLRRRLLAYEA [P22Y], the protein stability index falls from 4.84 to 4.41.

Going from SPGHSSAGQEGEDTLRRRLLAPAA [E23A] to SPGHSSAGQEGEDTLRRRLLAPCA [E23C], the protein stability index falls from 4.71 to 4.42.

First: SPGHSSAGQEGEDTLRRRLLAPDA [E23D]
Second: SPGHSSAGQEGEDTLRRRLLAPFA [E23F]
The protein stability index of the first is higher: 4.15 for the first, 3.78 for the second.

Compared with SPGHSSAGQEGEDTLRRRLLAPGA [E23G], SPGHSSAGQEGEDTLRRRLLAPHA [E23H] is lower in protein stability index: 4.67 for the first, 4.09 for the second.

Compared with SPGHSSAGQEGEDTLRRRLLAPIA [E23I], SPGHSSAGQEGEDTLRRRLLAPKA [E23K] is higher in protein stability index: 4.1 for the first, 4.95 for the second.

First: SPGHSSAGQEGEDTLRRRLLAPLA [E23L]
Second: SPGHSSAGQEGEDTLRRRLLAPMA [E23M]
The protein stability index of the first is lower: 3.87 for the first, 4.47 for the second.

First: SPGHSSAGQEGEDTLRRRLLAPNA [E23N]
Second: SPGHSSAGQEGEDTLRRRLLAPPA [E23P]
The protein stability index of the first is lower: 4.46 for the first, 5.13 for the second.

Going from SPGHSSAGQEGEDTLRRRLLAPQA [E23Q] to SPGHSSAGQEGEDTLRRRLLAPRA [E23R], the protein stability index rises from 4.59 to 4.77.

First: SPGHSSAGQEGEDTLRRRLLAPSA [E23S]
Second: SPGHSSAGQEGEDTLRRRLLAPTA [E23T]
The protein stability index of the first is lower: 4.46 for the first, 4.53 for the second.

Going from SPGHSSAGQEGEDTLRRRLLAPVA [E23V] to SPGHSSAGQEGEDTLRRRLLAPWA [E23W], the protein stability index falls from 4.38 to 3.98.

Compared with SPGHSSAGQEGEDTLRRRLLAPYA [E23Y], SPGHSSAGQEGEDTLRRRLLAPEC [A24C] is higher in protein stability index: 3.59 for the first, 4.27 for the second.

Going from SPGHSSAGQEGEDTLRRRLLAPED [A24D] to SPGHSSAGQEGEDTLRRRLLAPEE [A24E], the protein stability index rises from 5.29 to 5.36.

First: SPGHSSAGQEGEDTLRRRLLAPEF [A24F]
Second: SPGHSSAGQEGEDTLRRRLLAPEG [A24G]
The protein stability index of the first is lower: 3.98 for the first, 5.14 for the second.

First: SPGHSSAGQEGEDTLRRRLLAPEH [A24H]
Second: SPGHSSAGQEGEDTLRRRLLAPEI [A24I]
The protein stability index of the first is higher: 4.43 for the first, 4.2 for the second.

Compared with SPGHSSAGQEGEDTLRRRLLAPEK [A24K], SPGHSSAGQEGEDTLRRRLLAPEL [A24L] is lower in protein stability index: 4.82 for the first, 3.02 for the second.

Going from SPGHSSAGQEGEDTLRRRLLAPEM [A24M] to SPGHSSAGQEGEDTLRRRLLAPEN [A24N], the protein stability index rises from 2.76 to 4.83.

First: SPGHSSAGQEGEDTLRRRLLAPEP [A24P]
Second: SPGHSSAGQEGEDTLRRRLLAPEQ [A24Q]
The protein stability index of the first is higher: 4.94 for the first, 4.82 for the second.

Compared with SPGHSSAGQEGEDTLRRRLLAPER [A24R], SPGHSSAGQEGEDTLRRRLLAPES [A24S] is lower in protein stability index: 4.54 for the first, 4.35 for the second.

Compared with SPGHSSAGQEGEDTLRRRLLAPET [A24T], SPGHSSAGQEGEDTLRRRLLAPEV [A24V] is lower in protein stability index: 4.61 for the first, 4.59 for the second.

First: SPGHSSAGQEGEDTLRRRLLAPEW [A24W]
Second: SPGHSSAGQEGEDTLRRRLLAPEY [A24Y]
The protein stability index of the first is lower: 2.94 for the first, 3.42 for the second.

Variants of: B2
Experiment: as above
Settings: c terminus: a fixed tail appended

Compared with RLRGLLRVLRGRPGGGSRRRGRMA [A15G], RLRGLLRVLIGRPGAGSRRRGRMA [R10I] is higher in protein stability index: 1.54 for the first, 2.25 for the second.

Going from RLRGLLRVLRGRPGAGTRRRGRMA [S17T] to RLRGLLRVFRGRPGAGSRRRGRMA [L9F], the protein stability index falls from 3.32 to 3.09.

Going from RLRGLLRVLRGRQGAGSRRRGRMA [P13Q] to RLRGLLRVLRGRPGATSRRRGRMA [G16T], the protein stability index rises from 2.34 to 2.96.

First: RLRGLLRVLRHRPGAGSRRRGRMA [G11H]
Second: RLRGSLRVLRGRPGAGSRRRGRMA [L5S]
The protein stability index of the first is lower: 1.92 for the first, 4.64 for the second.

Going from RLRGLLRVLRGRPGAGSRRVGRMA [R20V] to RLRGLLTVLRGRPGAGSRRRGRMA [R7T], the protein stability index falls from 2.39 to 2.05.

First: RLRGLLRVQRGRPGAGSRRRGRMA [L9Q]
Second: RLRGLLRVLRTRPGAGSRRRGRMA [G11T]
The protein stability index of the first is higher: 3.39 for the first, 2.23 for the second.

Going from RLRGLLRVLRGRPGAGSRRRGRTA [M23T] to RLRGLLRVLRGRPFAGSRRRGRMA [G14F], the protein stability index falls from 2.44 to 1.85.

Going from RLRGLLRVLRGRPGAGLRRRGRMA [S17L] to RLRGVLRVLRGRPGAGSRRRGRMA [L5V], the protein stability index falls from 2.86 to 2.71.

First: RLRGLLRVLRGRPGQGSRRRGRMA [A15Q]
Second: RLRGLLRVLRGRPGNGSRRRGRMA [A15N]
The protein stability index of the first is lower: 1.49 for the first, 1.8 for the second.

First: RLRGLLRVLRGRPGAGSRRRFRMA [G21F]
Second: RLRGLLRVLRGRSGAGSRRRGRMA [P13S]
The protein stability index of the first is lower: 1.58 for the first, 3.48 for the second.

First: RLRGLLRVLRGIPGAGSRRRGRMA [R12I]
Second: RLRGLLRVLRGRPGAGSRRRGNMA [R22N]
The protein stability index of the first is lower: 1.06 for the first, 1.77 for the second.

Compared with RLRGWLRVLRGRPGAGSRRRGRMA [L5W], RLRGLLRVLRGRPGAGSRRRIRMA [G21I] is higher in protein stability index: 1.85 for the first, 2.32 for the second.

Compared with RLRGLLRVLRIRPGAGSRRRGRMA [G11I], RLRGLLRVLRGRKGAGSRRRGRMA [P13K] is higher in protein stability index: 2.77 for the first, 3.26 for the second.

First: RHRGLLRVLRGRPGAGSRRRGRMA [L2H]
Second: RLRGLLRVLRGRPGAYSRRRGRMA [G16Y]
The protein stability index of the first is higher: 4.34 for the first, 1.86 for the second.

First: RLRGLLRSLRGRPGAGSRRRGRMA [V8S]
Second: RLRGLLNVLRGRPGAGSRRRGRMA [R7N]
The protein stability index of the first is lower: 1.93 for the first, 2.35 for the second.

Going from RLRCLLRVLRGRPGAGSRRRGRMA [G4C] to GLRGLLRVLRGRPGAGSRRRGRMA [R1G], the protein stability index rises from 1.45 to 1.84.

Going from RPRGLLRVLRGRPGAGSRRRGRMA [L2P] to RLVGLLRVLRGRPGAGSRRRGRMA [R3V], the protein stability index falls from 4.19 to 1.02.

First: RLRGLLRVLRGRPGAGSRRRGRHA [M23H]
Second: RLRGLLRVLRGRPGAGSRRRGRVA [M23V]
The protein stability index of the first is higher: 2.42 for the first, 1.97 for the second.

Compared with QLRGLLRVLRGRPGAGSRRRGRMA [R1Q], RLRGLLRWLRGRPGAGSRRRGRMA [V8W] is lower in protein stability index: 2.02 for the first, 1.87 for the second.
